Measurements taken from US20200055939A1 (Genentech, published 2020).

How the values were obtained:
[1] = target: T1, MICA*008 on MEL-JUSO cells (human, UniProt Q29983 24-317); assay: cell-based or functional assay
T1 chain: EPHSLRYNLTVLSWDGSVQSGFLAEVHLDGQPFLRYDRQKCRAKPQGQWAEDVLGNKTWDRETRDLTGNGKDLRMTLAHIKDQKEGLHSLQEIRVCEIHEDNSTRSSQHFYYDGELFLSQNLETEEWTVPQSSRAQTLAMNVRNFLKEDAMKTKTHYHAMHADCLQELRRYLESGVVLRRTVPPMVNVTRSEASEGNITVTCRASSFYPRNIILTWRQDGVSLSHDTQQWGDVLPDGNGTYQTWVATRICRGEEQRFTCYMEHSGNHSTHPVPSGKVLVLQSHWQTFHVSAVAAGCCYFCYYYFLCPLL

[2] = target: T2, MICA*004 on HCC1534 cells (human, UniProt Q29983 24-383); assay: cell-based or functional assay
[3] = target: MICB*005 on HCC1534 cells (human); assay: cell-based or functional assay
MICA*002 on PANC-1 cells = MICA*002 on PANC-1 cells (human, UniProt Q29983 24-383); assay: cell-based or functional assay
[4] = target: T1, MICA*008 on MEL-JUSO cells; assay: cell-based or functional assay
[5] = target: T2, MICA*004 on HCC1534 cells; assay: cell-based or functional assay; remark: listed apart in the source
[6] = target: MICB*005 on HCC1534 cells (human); assay: cell-based or functional assay; remark: listed apart in the source
huMICA*002 alpha 3-his [7] = target: T3, huMICA*002 alpha 3-his (human); assay: SPR, Biacore 8K, antibody on Protein A chip
T3 construct: whole construct entry: GS, alpha 3 domain, GNS, His8; also called MICA002.His; MICA*002 alpha3 construct
T3 chain: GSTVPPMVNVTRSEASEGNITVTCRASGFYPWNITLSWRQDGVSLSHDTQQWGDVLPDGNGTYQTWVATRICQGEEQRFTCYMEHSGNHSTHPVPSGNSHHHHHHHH

huMICA*004 alpha 3-his [8] = target: T4, huMICA*004 alpha 3-his (human); assay: SPR, Biacore 8K, antibody on Protein A chip
T4 construct: whole construct entry: GS, alpha 3 domain, GNS, His8; also called MICA004.His; MICA*004 alpha3 construct
T4 chain: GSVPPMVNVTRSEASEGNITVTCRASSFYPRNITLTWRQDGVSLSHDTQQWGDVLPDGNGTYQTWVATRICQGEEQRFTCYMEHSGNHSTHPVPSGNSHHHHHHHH

huMICA*008 alpha 3-his [9] = target: T5, huMICA*008 alpha 3-his (human); assay: SPR, Biacore 8K, antibody on Protein A chip
T5 construct: whole construct entry: GS, alpha 3 domain (Thr204-Ser297), GNS, His8; also the construct of the FPOP experiment; also called MICA008.His; MICA*008 alpha3 construct
T5 chain: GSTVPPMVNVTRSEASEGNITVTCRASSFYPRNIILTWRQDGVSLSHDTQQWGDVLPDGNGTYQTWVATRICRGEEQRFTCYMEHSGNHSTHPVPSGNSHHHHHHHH

huMICB*005 alpha 3-his [10] = target: T6, huMICB*005 alpha 3-his (human); assay: SPR, Biacore 8K, antibody on Protein A chip
T6 construct: whole construct entry: GS, alpha 3 domain, GNS, His8; also called MICB005.His; MICB*005 alpha3 construct
T6 chain: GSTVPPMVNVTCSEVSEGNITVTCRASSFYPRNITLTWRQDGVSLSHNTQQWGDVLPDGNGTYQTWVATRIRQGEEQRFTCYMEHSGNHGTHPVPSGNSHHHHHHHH

huMICA*002 alpha 3-his [11] = target: T3, huMICA*002 alpha 3-his; assay: 'Affinity (nM)' row of Table 17; method not stated
huMICA*004 alpha 3-his [12] = target: T4, huMICA*004 alpha 3-his; assay: 'Affinity (nM)' row of Table 17; method not stated
huMICB*005 alpha 3-his [13] = target: T6, huMICB*005 alpha 3-his; assay: 'Affinity (nM)' row of Table 17; method not stated
huMICA*008 alpha 3-his [14] = target: T5, huMICA*008 alpha 3-his; assay: 'Affinity (nM)' row of Table 17; method not stated; MICA*008 allele (column of the MEL-JUSO shedding assay)
[15] = target: T7, MICB005.His (human MICB*005 alpha 3 domain, His tagged) (human); assay: ELISA, coated antigen
T7 construct: also called huMICB*005 alpha 3-his
T7 chain: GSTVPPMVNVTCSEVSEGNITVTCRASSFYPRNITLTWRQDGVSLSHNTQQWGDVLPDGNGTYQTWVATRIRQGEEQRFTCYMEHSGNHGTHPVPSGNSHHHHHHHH

[16] = target: T8, MICA.008.a3.R202-S297.R202N mIgG2a.Glyco11 (human; mouse, UniProt Q29983 203-297, engineered N-linked glycosylation site R202N); assay: ELISA, coated variant;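 also: ELISA with plates coated at 2 ug/ml with MICA*008 alpha 3 glycosylation variants as murine IgG2a Fc fusions, antibody binding detected by HRP anti-human IgG Fc and TMB absorbance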
T8 construct: not shown: murine IgG2a Fc
T8 chain: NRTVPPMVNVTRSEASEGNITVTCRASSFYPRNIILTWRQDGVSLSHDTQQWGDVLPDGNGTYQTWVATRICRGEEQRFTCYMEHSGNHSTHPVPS

[17] = target: T9, MICA.008.a3.T204-S297.E215N.mIgG2a.Glyco12 (human; mouse, UniProt Q29983 204-297, engineered N-linked glycosylation site E215N); assay: ELISA, coated variant;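 also: ELISA with plates coated at 2 ug/ml with MICA*008 alpha 3 glycosylation variants as murine IgG2a Fc fusions, antibody binding detected by HRP anti-human IgG Fc and TMB absorbance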
T9 construct: not shown: murine IgG2a Fc
T9 chain: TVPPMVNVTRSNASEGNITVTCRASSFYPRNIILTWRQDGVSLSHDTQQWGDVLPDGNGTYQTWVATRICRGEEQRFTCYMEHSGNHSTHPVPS

[18] = target: T10, MICA.008.a3.T204-S297.I236T.mIgG2a.Glyco13 (human; mouse, UniProt Q29983 204-297, engineered N-linked glycosylation site created by I236T); assay: ELISA, coated variant;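 also: ELISA with plates coated at 2 ug/ml with MICA*008 alpha 3 glycosylation variants as murine IgG2a Fc fusions, antibody binding detected by HRP anti-human IgG Fc and TMB absorbance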
T10 construct: not shown: murine IgG2a Fc
T10 chain: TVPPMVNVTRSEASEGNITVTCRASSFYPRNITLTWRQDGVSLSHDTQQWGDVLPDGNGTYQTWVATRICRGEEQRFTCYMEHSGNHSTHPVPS

[19] = target: T11, MICA.008.a3.T204-S297.G243N.mIgG2a.Glyco14 (human; mouse, UniProt Q29983 204-297, engineered N-linked glycosylation site G243N); assay: ELISA, coated variant;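 also: ELISA with plates coated at 2 ug/ml with MICA*008 alpha 3 glycosylation variants as murine IgG2a Fc fusions, antibody binding detected by HRP anti-human IgG Fc and TMB absorbance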
T11 construct: not shown: murine IgG2a Fc
T11 chain: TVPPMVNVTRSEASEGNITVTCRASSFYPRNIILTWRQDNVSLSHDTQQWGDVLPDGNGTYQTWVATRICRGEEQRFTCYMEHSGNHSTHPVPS

[20] = target: T12, MICA.008.a3.T204-S297.R279N.mIgG2a.Glyco16 (human; mouse, UniProt Q29983 204-297, engineered N-linked glycosylation site R279N); assay: ELISA, coated variant
T12 construct: not shown: murine IgG2a Fc
T12 chain: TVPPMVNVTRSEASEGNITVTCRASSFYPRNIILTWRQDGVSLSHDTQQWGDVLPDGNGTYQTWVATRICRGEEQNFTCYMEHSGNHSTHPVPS

[21] = target: T13, MICA.008.a3.T204-S297.C-terminal insert of N298.G299.S300.mIgG2a.Glyco17 (human; mouse, UniProt Q29983 204-297, engineered N-linked glycosylation site at inserted N298); assay: ELISA, coated variant
T13 construct: not shown: murine IgG2a Fc
T13 chain: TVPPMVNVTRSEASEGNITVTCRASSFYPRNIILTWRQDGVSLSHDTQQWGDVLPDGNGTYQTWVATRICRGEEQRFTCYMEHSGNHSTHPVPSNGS

[22] = target: T14, MICA008.His (human MICA*008 alpha 3 domain, His tagged) (human); assay: SPR, antibody captured;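 also: SPR with antibody held by surface-bound anti-Fc while His-tagged alpha three domains flow over, Kd derived by fitting a one-to-one binding model to sensograms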
T14 construct: Also used for FPOP (expressed in CHO); also called huMICA*008 alpha 3-his; MICA*008 a3
T14 chain: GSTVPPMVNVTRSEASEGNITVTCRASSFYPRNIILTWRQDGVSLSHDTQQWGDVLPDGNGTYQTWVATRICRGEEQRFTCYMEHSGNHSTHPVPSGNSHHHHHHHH

[23] = target: T15, MICA002.His (human MICA*002 alpha 3 domain, His tagged) (human); assay: SPR, antibody captured;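 also: SPR with antibody held by surface-bound anti-Fc while His-tagged alpha three domains flow over, Kd derived by fitting a one-to-one binding model to sensograms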
T15 construct: also called huMICA*002 alpha 3-his
T15 chain: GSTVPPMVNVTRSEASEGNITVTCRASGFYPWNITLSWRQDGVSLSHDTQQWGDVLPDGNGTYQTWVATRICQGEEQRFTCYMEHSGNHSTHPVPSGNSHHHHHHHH

[24] = target: T16, MICA004.His (human MICA*004 alpha 3 domain, His tagged) (human); assay: SPR, antibody captured;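 also: SPR with antibody held by surface-bound anti-Fc while His-tagged alpha three domains flow over, Kd derived by fitting a one-to-one binding model to sensograms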
T16 construct: also called huMICA*004 alpha 3-his
T16 chain: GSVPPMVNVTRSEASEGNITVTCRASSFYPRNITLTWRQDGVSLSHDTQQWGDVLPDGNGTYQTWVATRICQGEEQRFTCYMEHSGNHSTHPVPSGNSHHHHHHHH

[25] = target: T17, MICA*008 on MEL-JUSO cells (human, UniProt Q29983 24-317); assay: cell-based or functional assay
T17 chain: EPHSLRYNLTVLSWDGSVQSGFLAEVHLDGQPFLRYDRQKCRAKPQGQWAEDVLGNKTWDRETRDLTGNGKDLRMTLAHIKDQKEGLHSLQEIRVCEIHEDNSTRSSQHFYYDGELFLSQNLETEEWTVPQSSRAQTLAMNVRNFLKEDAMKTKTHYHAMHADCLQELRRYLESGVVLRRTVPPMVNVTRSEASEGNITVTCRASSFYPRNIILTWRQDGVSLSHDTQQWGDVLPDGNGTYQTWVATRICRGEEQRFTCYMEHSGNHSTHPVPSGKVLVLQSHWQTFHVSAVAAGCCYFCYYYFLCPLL

[26] = target: MICA*004 on HCC1534 cells (human, UniProt Q29983 24-383); assay: cell-based or functional assay; remark: listed apart in the source

B1: 1D5 (antibody, V domains shown)
VH: EIQLQQSGPELVKPGASVKVSCKASGYAFTSQNIYWVKQSHGKSLEWIGYIEPYNVVPMYNPKFKGKATLTVDKSSSSAYIHLNSLTSEDSAIYYCARSGSSNFDYWGQGTTLTVSS
VL: EIILTQSPTTMAASPGEKITITCSASSSISSHYLHWYQQKSGFSPKLLIYRTSNLASGVPARFSGSGSGTSYSLTIGTMEAEDVATYYCQQGSSLPLTFGAGTKVEIK
notes: mouse variable domains; also called anti-MIC 1D5
IC50 (mg/mL), cell shedding assay [1]: 0.00823 mg/mL
Max inhibition, cell shedding assay [1]: 81%
IC50 (mg/mL), cell shedding assay [2]: 0.0247 mg/mL
Max inhibition, cell shedding assay [2]: 70%
IC50 (mg/mL), cell shedding assay [3]: 0.0293 mg/mL
Max inhibition, cell shedding assay [3]: 52%
IC50 (mg/mL), cell shedding assay (MICA*002 on PANC-1 cells): 0.0291 mg/mL
Max inhibition, cell shedding assay (MICA*002 on PANC-1 cells): 53%
% Inhibition [4]: 69%
% Inhibition [5]: 52%
% Inhibition [6]: 49%
Kd (huMICA*002 alpha 3-his [7]): 0.83 nM
Kd (huMICA*004 alpha 3-his [8]): 0.63 nM
Kd (huMICA*008 alpha 3-his [9]): 0.61 nM
Kd (huMICB*005 alpha 3-his [10]): 0.95 nM
Kd (huMICA*002 alpha 3-his [11]): 0.82 nM
Kd (huMICA*004 alpha 3-his [12]): 0.56 nM
Kd (huMICB*005 alpha 3-his [13]): 2.28 nM
Kd (huMICA*008 alpha 3-his [14]): 0.54 nM

B2: 6E12.5 (antibody, V domains shown)
VH: EVQLVESGGGLVKPGGSLKLSCAASGFTFSDYYMYWVRQTPEKRLEWVATISDGITYTYYSDSVRGRFTISRDNAENTLYLQMSSLKSEDTAMYYCSKGGGSTARGALDFWGQGTSVTVSS
VL: DIQMNQSPSSLSASLGDTITITCHASQNIHVWLSWYQQKPGNIPKLLIYGASHLHTGVPSRFSGRGSGTGFTLTISSLQPEDIATYYCLQGQSYPLTFGSGTKVEIK
notes: Mouse hybridoma antibody; constant regions differ by assay
binding result [15]: binds
binding result [16]: binds
binding result [17]: binds
binding result [18]: binds
binding result [19]: binds
binding result [20]: binds
binding result [21]: binds
Kd [22]: 15.1 nM
Kd [23]: 4.5 nM
Kd [24]: 3 nM
% max inhibition of shedding [25]: 28%
EC50 of shedding inhibition [25]: 0.074 mg/L
% max inhibition of shedding [26]: 37%
EC50 of shedding inhibition [26]: 0.329 mg/L
